Biological target: 6xHis-Zasp52-PK-FLAG (Drosophila melanogaster)
Assay: cross-linking; purified 6xHis-Zasp52-PK-FLAG incubated with EGS or alone; SDS-PAGE and anti-Flag western blot

Chain of 6xHis-Zasp52-PK-FLAG (A1ZA47 whole entry): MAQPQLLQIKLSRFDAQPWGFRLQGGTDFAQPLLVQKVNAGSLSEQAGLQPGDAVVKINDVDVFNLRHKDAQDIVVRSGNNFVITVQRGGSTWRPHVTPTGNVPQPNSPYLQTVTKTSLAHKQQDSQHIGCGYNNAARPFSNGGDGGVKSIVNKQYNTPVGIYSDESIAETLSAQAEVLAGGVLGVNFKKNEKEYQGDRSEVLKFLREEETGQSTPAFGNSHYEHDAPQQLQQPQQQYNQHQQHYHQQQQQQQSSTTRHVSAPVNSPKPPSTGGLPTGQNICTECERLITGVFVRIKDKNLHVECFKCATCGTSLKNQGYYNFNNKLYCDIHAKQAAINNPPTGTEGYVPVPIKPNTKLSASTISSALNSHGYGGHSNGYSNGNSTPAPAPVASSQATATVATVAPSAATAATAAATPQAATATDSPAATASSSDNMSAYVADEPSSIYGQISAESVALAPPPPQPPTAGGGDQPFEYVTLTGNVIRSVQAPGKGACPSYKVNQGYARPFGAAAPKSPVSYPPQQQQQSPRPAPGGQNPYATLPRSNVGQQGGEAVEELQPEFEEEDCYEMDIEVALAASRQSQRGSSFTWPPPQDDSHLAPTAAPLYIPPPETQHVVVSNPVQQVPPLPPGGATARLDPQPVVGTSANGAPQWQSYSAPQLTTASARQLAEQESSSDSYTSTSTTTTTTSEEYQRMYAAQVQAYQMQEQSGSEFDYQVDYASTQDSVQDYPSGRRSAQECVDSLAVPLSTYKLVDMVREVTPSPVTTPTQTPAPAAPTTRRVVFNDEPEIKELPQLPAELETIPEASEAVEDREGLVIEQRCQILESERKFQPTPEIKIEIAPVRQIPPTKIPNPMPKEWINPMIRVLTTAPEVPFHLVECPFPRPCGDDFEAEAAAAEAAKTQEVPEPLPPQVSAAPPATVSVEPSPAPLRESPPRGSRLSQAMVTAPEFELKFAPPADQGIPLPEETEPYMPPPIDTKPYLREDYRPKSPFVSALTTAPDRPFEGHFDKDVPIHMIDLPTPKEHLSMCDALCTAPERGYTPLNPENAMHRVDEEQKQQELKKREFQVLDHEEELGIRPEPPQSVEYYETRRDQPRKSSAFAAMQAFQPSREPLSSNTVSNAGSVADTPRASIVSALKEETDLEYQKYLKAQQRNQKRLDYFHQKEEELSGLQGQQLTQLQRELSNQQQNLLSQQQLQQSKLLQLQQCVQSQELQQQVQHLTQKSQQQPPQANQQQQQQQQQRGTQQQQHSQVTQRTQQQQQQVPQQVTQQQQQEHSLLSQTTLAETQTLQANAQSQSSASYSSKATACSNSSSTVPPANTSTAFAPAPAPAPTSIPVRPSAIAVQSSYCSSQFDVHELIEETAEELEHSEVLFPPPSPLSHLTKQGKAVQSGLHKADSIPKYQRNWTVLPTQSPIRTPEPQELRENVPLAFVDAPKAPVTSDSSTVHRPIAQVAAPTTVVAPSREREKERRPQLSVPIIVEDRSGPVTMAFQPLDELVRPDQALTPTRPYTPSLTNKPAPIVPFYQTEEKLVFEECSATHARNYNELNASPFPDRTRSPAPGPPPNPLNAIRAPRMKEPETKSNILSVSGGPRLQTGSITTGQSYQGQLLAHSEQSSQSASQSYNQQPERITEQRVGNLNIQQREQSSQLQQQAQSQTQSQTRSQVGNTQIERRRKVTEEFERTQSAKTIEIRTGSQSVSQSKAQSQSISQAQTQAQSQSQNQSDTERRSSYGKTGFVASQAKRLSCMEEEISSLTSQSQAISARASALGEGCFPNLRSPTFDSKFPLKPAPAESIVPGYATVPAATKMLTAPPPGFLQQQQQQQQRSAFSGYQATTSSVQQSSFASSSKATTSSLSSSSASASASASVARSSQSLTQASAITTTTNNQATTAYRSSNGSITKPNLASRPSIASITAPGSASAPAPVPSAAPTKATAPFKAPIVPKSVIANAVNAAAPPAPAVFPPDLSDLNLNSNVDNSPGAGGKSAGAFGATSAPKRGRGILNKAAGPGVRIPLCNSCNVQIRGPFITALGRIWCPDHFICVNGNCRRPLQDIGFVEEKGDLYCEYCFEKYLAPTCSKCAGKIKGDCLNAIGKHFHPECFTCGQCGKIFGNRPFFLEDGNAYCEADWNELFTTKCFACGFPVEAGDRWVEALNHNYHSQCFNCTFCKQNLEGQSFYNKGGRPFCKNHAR

- stoichiometry N: 2
Substance: 6xHis-Zasp52-PK-FLAG (natural protein)
